{"source": "patent US20080152663A1", "target": "B61/B51 (on B61/B51-matched allogeneic LCL)", "assay": "cell-based or functional assay"}
{"binder": "QEPLYPVQVSSADARLMVFDKTEGTWRLLCSSRSNAR", "note": "[hepsin peptide 48-84 (residues 48-84 of hepsin)]", "values": [{"measurement": "Percent cell killing; B61/B51-matched allogeneic LCL + peptide; CD8+ T cells of donor", "value": 27.1, "unit": "%"}]}
